Test results from publication doi:10.1101/2020.08.10.244244.

Molecular target: HA-tagged mutant (Leu15) AP2σ2 subunit (human) (human) (UniProt P53680)
Experiment: co-IP

reduction of the subunit in the HA-AP2σ2 immunoprecipitate against WT cells: > 50%
Substance: AP2α subunit, endogenous in HEK293 cells (from UniProt O95782 1-977) (natural protein)
